In one experiment the target is hPar14 (Homo sapiens, UniProt Q9Y237). The experiment in a line: Protease coupled PPIase assay, hPar14. As to conditions: up to 50 μM. The experiment is classed as biochemical. On the procedure: FIG. 6 depicts the influence of peptide 17 on the hPar14 PPIase activity. The apparent first order rate constant kobs determined for the cis to trans isomerization of the arginyl-prolyl peptide bond of the substrate Suc-Ala-Arg-Pro-Phe-NH-Np (SEQ ID NO: 3) was measured using the protease coupled PPIase assay. α-Chymotrypsin was used as isomer specific protease. As control, the nonphosphorylated derivative of peptide 17 was used.
PPIase activities were monitored on a Hewlett-Packard 8452A diode array spectrophotometer according to Fischer et al., 1984 and Zhang et al., 2002. The hPar14 PPIase activity was measured with Suc-Ala-Arg-Pro-Phe-NH-Np (SEQ ID NO: 3) (final concentration 75 μM) as substrate and α-chymotrypsin (final concentration 60 μM) as isomer specific protease. PPIase activity of hCyp 18 and FKBP12 were measured using Suc-Ala-Ala-Pro-Phe-NH-Np (SEQ ID NO: 7) as substrate (final concentration 16 μM) and α-chymotrypsin (final concentration 60 μM) as isomer specific protease. PPIase activity of hPin1 was measured with Ac-Ala-Ala-Ser(PO3H2)-Pro-Arg-NH-Np (SEQ ID NO: 4) (final concentration 10 μM) as substrate and trypsin (final concentration 60 μM) as isomer specific protease. Final concentrations of the PPIases were 1.7 μM for hPar14, 4 nM for hPin1, 7 nM for FKBP12 and 9.7 nM for hCyp18. […] Measurements were monitored at 390 nm. […]

Another experiment relates to X. laevis embryos. The experiment can be described thus: Microinjection in X. laevis embryos, cell division. The experiment is classed as in vivo. To be noted: microinjection at stage 2. On the procedure:
FIG. 8 depicts the blocking of cell division by the injection of peptide 17 in X. laevis embryos. 50-300 pmol of peptide 17 or 300 pmol of its nonphosphorylated derivative (control) dissolved in 10 nl PBS buffer were microinjected in the animal half of X. laevis embryos at stage 2 of development. Embryos with large and/or apoptotic appearing cells surrounded by normally developing cells were counted after further 5 hours (stage 8-9) of development. […] Each value is the average of four independent experiments.
FIGS. 9A-F depicts phenotypic analysis of X. laevis embryos after injection of peptide 17. 300 pmol of peptide 17 or its nonphosphorylated derivative dissolved in 10 nl PBS buffer were injected in the animal half of X. laevis embryos at stage 2 of development. 1.5 hour at stage 6 (A), 2.5 hours at stage 7 (B) and 4-5 hours at stage 8-9 (C, D) after injection enlarged cells became visible. Cells that are blocked in cell division are marked with a white arrow. Controls of uninjected embryos of stage 8-9 and embryos that were injected with 300 pmol of the nonphosphorylated derivative of peptide 17 are shown in panels E and F. The site where the nonphosphorylated derivative of peptide 17 was injected is marked with a white arrow (F).
FIGS. 10A-D depict the rescue of peptide 17 caused cell division block in X. laevis embryos by hPin1 (A, B) and different hPin1 variants (C, D). FIG. 10A depicts the time course of V5-tagged hPin1 expression was analyzed by preparation of X. laevis embryo lysate 1, 2 and 4 hours after injection of 1, 2 or 3 ng of V5-tagged hPin1 mRNA. In every case, the injected volume was 10 nl. Lysates were prepared in lysis buffer containing phosphatase and protease inhibitors. Samples were separated by SDS PAGE followed by western blotting. Endogenous XlPin1 and V5-tagged hPin1 were detected using an anti hPin1 PPIase domain antiserum as primary antibody followed by incubation with a horseradish peroxidase-conjugated secondary antibody. Visualization was done using the SuperSignal® substrate. […] In every case, the whole volume of injection was 10 nl. The indicated amount of the mRNA was injected in the animal half of 30 embryos at stage 2 of development. Embryos with large and/or apoptotic appearing cells surrounded by normally developed cells were counted after additional 5 hours of development (stage 8-9). […] Each percentage of vital embryos shown in the figure is the average of four independent experiments. FIG. 10C indicates the expression of V5-tagged hPin1 variants was evaluated by preparation of embryo lysate after 4 hours of injection of the respective mRNA (2 ng) in X. laevis embryos. Lysates were prepared in lysis buffer containing phosphatase and protease inhibitors. Samples were separated using SDS PAGE followed by western blot analysis. Endogenous XlPin1 and injected V5-tagged hPin1 variants were detected using an anti hPin1 PPIase domain antiserum as primary antibody and a horseradish peroxidase-conjugated secondary antibody. Visualization was done by a chemiluminescent reaction using the SuperSignal® substrate (Pierce). FIG. 10D depicts 250 pmol of peptide 17 was coinjected with 2 ng mRNA of the indicated V5-tagged hPin1 variant (whole volume 10 nl) in the animal half of 30 X. laevis embryos at stage 2 of development. Results were analyzed as described for FIG. 10B. Each percentage of vital embryos shown in the figure is the average of four independent experiments.
Microinjection was done into the animal half of X. laevis embryos at stage 2 of development. In every case, the injection volume was 10 nl. Immunofluorescence studies of frozen X. laevis embryo sections were performed as previously described (Julius et al., 2000). Ten-micrometer cryosections of stage 8 embryos were labelled using a monoclonal anti hPin1 antibody (mouse) followed by incubation with Alexa Fluor 546™-conjugated anti mouse antibody of goat serum (Molecular Probes). […]

The target in experiment [1] is T1, interaction of MPM-2 antigens with GST-hPin1 (Homo sapiens, UniProt Q13526).
T1 construct: made in house
The experiment in a line: MPM-2 competition assay. The format is binding. As to conditions: mitotic HeLa cell lysate, 8 μM GST-hPin1. On the procedure:
FIG. 7 depicts the influence of peptide 17 on the interaction of MPM-2 antigens with hPin1. The indicated concentration of peptide 17 or its nonphosphorylated derivative (control) was incubated with an 8 μM solution of GST-hPin1. After addition of mitotic HeLa cell lysate, GST-hPin1 was extracted from the respective mixture using glutathione sepharose. Samples were analyzed regarding extracted GST-hPin1 and coprecipitated MPM-2 antigenes by SDS PAGE and western blot analysis. Untreated lysate of mitotic HeLa cells was loaded on the first line (extract). MPM-2 antigenes were detected using the monoclonal anti MPM-2 antibody (mouse). GST-hPin1 was detected using an anti hPin1 PPIase domain antiserum (rabbit). Horseradish peroxidase-conjugated antibodies from mouse or rabbit were used as secondary antibodies. […]
1.3 mM of Peptide 17 or its nonphosphorylated derivative were incubated with GST-hPin1 (8 μM) for 2 hours at 4° C. […] Following SDS-PAGE, the samples were analyzed by western blot analysis. GST-hPin1 and coextracted MPM-2 antigens were detected using an anti hPin1 PPIase domain antiserum (rabbit) or monoclonal anti MPM-2 antibody (Upstate Biotechnology) from mouse. […]
MPM-2 antigens are mitotic phosphoproteins that are specifically recognized by the monoclonal antibody MPM-2. […] The coextracted MPM-2 antigenes were detected after SDS PAGE by western blot analysis using the anti MPM-2 antibody. […]

The target in experiment [2] is T2, full-length hPin1 (human, UniProt Q13526 1-163). The experiment in a line: isothermal titration calorimetry, single binding site model. A general note: ITC needs no label: the signal is the heat of the interaction.
In experiment [3] the target is T2, full-length hPin1. The experiment in a line: method not stated there (ITC value of paragraph 223 rounded); D isomer.
For experiment [4], the target named is T2, full-length hPin1. The experiment can be described thus: comparison of Kd values.
Experiment [5] deals with T2, full-length hPin1. The experiment can be described thus: isothermal titration calorimetry, 10 °C, full-length hPin1 in the cell.
Experiment [6] addresses T2, full-length hPin1. The experiment in a line: cell-based or functional assay.
The target in experiment [7] is T2, full-length hPin1. The experiment can be described thus: cell-based or functional assay. This is another data set of the same source.
For experiment [8], the target named is T2, full-length hPin1. The experiment can be described thus: inhibition of PPIase activity.
In experiment [9] the target is T2, full-length hPin1. The experiment can be described thus: cell-based or functional assay. The source holds these as a separate data set.

Like-named read-outs stand apart in the source and are kept apart here. Square brackets hold non-standard residues; d marks the D form. * marks the point of attachment. Biotin = O=C1N[C@H]2[C@H](CS[C@H]2CCCCC(=O)*)N1; d(pT) = C[C@H](OP(=O)(O)O)[C@@H](N)C(=O)O; pT = C[C@@H](OP(=O)(O)O)[C@H](N)C(=O)O; 2Nal = N[C@@H](Cc1ccc2ccccc2c1)C(=O)O; Bta = N[C@@H](Cc1csc2ccccc12)C(=O)O; Pip = O=C(O)[C@@H]1CCCCN1; Bth = benzothiophene

T2 sequence (Q13526 whole entry): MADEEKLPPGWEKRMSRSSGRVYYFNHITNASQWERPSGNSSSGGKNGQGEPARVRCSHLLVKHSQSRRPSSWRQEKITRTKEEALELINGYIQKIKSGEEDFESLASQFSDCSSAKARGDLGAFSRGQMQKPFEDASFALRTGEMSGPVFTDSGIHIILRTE
T1 sequence (Q13526 whole entry): as above
hPar14, sequence (Q9Y237 whole entry): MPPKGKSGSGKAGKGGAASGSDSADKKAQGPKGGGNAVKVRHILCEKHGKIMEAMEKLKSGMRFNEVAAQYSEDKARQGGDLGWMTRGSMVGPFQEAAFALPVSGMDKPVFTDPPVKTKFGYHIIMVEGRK

For the molecule “nonphosphorylated derivative of peptide 17: nonphosphorylated derivative of peptide 17, used as control (Ac-F[dT][Pip][2Nal]Q-NH2) [reference compound]”, in the experiment with hPar14, the “inhibition of hPar14 PPIase activity” value is “No inhibition”. Further, the “effect on development of the embryos” value in the experiment with X. laevis embryos is recorded as “no visible effect”. Also, in experiment [1], the “influence on interaction of MPM-2 antigenes with GST-hPin1” value is given as “had no effect”.

Turning to “peptide 17, Ac-Phe-D-Thr(PO3H2)-Pip-Nal-Gln-NH2”, in the experiment with full-length hPin1 [2], the Ka stood at 5.18e+07 M⁻¹ and the n (binding stoichiometry) was 0.96. The Kd – broadly, the equilibrium constant for the complex coming apart – with full-length hPin1 [3] was found to be 19 nM. The same molecule had a fold tighter binding against Ac-Phe-L-Thr(PO3H2)-Pip-Nal-Gln-NH2 with full-length hPin1 [4] of 30 fold. For the same molecule, in the experiment with full-length hPin1 [5], the binding enthalpy ΔHbind was -4.56 kcal/mol and the binding entropy TΔSbind is 5.43 kcal/mol.

B1: peptide 4 (peptide)
peptide: Ac-K(Biotin)AA[Bta][pT]P[2Nal]Q-NH2
For the molecule B1, in the experiment with full-length hPin1 [6], the “IC50(µM), blockade of the PPIase activity of hPin1, protease free PPIase assay” value turned out to be 20 µM. Moreover, the “fold decrease of inhibition of hPin1 PPIase activity against peptide 15” value with full-length hPin1 [7] turned out to be 100 fold.

B2: peptide 16, Ac-Lys(N^ε-biotinoyl)-Ala-Ala-Bth-D-Thr(PO3H2)-Pip-Nal-Gln-NH2 (peptide)
peptide: Ac-K(Biotin)AA[Bta][d(pT)][Pip][2Nal]Q-NH2
The molecule B2 gave a fold decrease of Ki against peptide 15 with full-length hPin1 [8] of 150 fold.

B3: peptide 15, Ac-Lys(N^ε-biotinoyl)-Ala-Ala-Bth-Thr(PO3H2)Pip-Nal-Gln-NH2 (peptide)
peptide: Ac-K(Biotin)AA[Bth][pT][Pip]AQ-NH2
modifications: not fully specified (residue 7); printed as Ac-Lys(N^ε-biotinoyl)-Ala-Ala-Bth-Thr(PO3H2)Pip-Nal-Gln-NH2
Consider B3, for which the IC50(µM), blockade of the PPIase activity of hPin1, protease free PPIase assay with full-length hPin1 [9] stood at 0.21 µM.

For the origin of these results see US8258099B2, “Pin1-modulating compounds and methods of use thereof” (Max-Planck-Gesellschaft zur Foerderung der Wissenschaften …, priority 2004, dated 2012).
